Values quoted from earlier work, collected in patent publication US20200069786A1, “COMPOSITION AND PROCESS FOR PREPARING VACCINE” (TREOS BIO ZRT., priority 2018, published 2020).
Like-named read-outs stand apart in the source and are kept apart here.

B1: MAGE-C1 (protein, UniProt O60732 1-1142, looked up)
Melanoma-associated antigen C1: MGDKDMPTAGMPSLLQSSSESPQSCPEGEDSQSPLQIPQSSPESDDTLYPLQSPQSRSEGEDSSDPLQRPPEGKDSQSPLQIPQSSPEGDDTQSPLQNSQSSPEGKDSLSPLEISQSPPEGEDVQSPLQNPASSFFSSALLSIFQSSPESTQSPFEGFPQSVLQIPVSAASSSTLVSIFQSSPESTQSPFEGFPQSPLQIPVSRSFSSTLLSIFQSSPERTQSTFEGFAQSPLQIPVSPSSSSTLLSLFQSFSERTQSTFEGFAQSSLQIPVSPSFSSTLVSLFQSSPERTQSTFEGFPQSPLQIPVSSSSSSTLLSLFQSSPERTHSTFEGFPQSLLQIPMTSSFSSTLLSIFQSSPESAQSTFEGFPQSPLQIPGSPSFSSTLLSLFQSSPERTHSTFEGFPQSPLQIPMTSSFSSTLLSILQSSPESAQSAFEGFPQSPLQIPVSSSFSYTLLSLFQSSPERTHSTFEGFPQSPLQIPVSSSSSSSTLLSLFQSSPECTQSTFEGFPQSPLQIPQSPPEGENTHSPLQIVPSLPEWEDSLSPHYFPQSPPQGEDSLSPHYFPQSPPQGEDSLSPHYFPQSPQGEDSLSPHYFPQSPPQGEDSMSPLYFPQSPLQGEEFQSSLQSPVSICSSSTPSSLPQSFPESSQSPPEGPVQSPLHSPQSPPEGMHSQSPLQSPESAPEGEDSLSPLQIPQSPLEGEDSLSSLHFPQSPPEWEDSLSPLHFPQFPPQGEDFQSSLQSPVSICSSSTSLSLPQSFPESPQSPPEGPAQSPLQRPVSSFFSYTLASLLQSSHESPQSPPEGPAQSPLQSPVSSFPSSTSSSLSQSSPVSSFPSSTSSSLSKSSPESPLQSPVISFSSSTSLSPFSEESSSPVDEYTSSSDTLLESDSLTDSESLIESEPLFTYTLDEKVDELARFLLLKYQVKQPITKAEMLTNVISRYTGYFPVIFRKAREFIEILFGISLREVDPDDSYVFVNTLDLTSEGCLSDEQGMSQNRLLILILSIIFIKGTYASEEVIWDVLSGIGVRAGREHFAFGEPRELLTKVWVQEHYLEYREVPNSSPPRYEFLWGPRAHSEVIKRKVVEFLAMLKNTVPITFPSSYKDALKDVEERAQAIIDTTDDSTATESASSSVMSPSFSSE
B2: EpCAM (protein, UniProt P16422 24-314, looked up)
Epithelial cell adhesion …: QEECVCENYKLAVNCFVNNNRQCQCTSVGAQNTVICSKLAAKCLVMKAEMNGSKLGRRAKPEGALQNNDGLYDPDCDESGLFKAKQCNGTSMCWCVNTAGVRRTDKDTEITCSERVRTYWIIIELKHKAREKPYDSKSLRTALQKEITTRYQLDPKFITSILYENNVITIDLVQNSSQKTQNDVDIADVAYYFEKDVKGESLFHSKKMDLTVNGEQLDLDPGQTLIYYVDEKAPEFSMQGLKAGVIAVIVVVVIAVVAGIVVLVISRKKRMAKYEKAEIKEMGEMHRELNA

Tested on: TSA
[1] = TSA expression rate in BLADDER cancer
[2] = TSA expression rate in Esophageal
[3] = TSA expression rate in GASTRIC cancer

Row | Molecule | TSA Expression Rate (ER) (BRAIN) [%] | TSA Expression Rate (ER) (BREAST) [%] | TSA Expression Rate (ER) (HCC) [%] | TSA Expression Rate (ER) (OVARIAN) [%] | TSA Expression Rate (ER) (PANCREATIC) [%] | TSA Expression Rate (ER) (THYROID) [%] | Expression Rate (ER) % [1] [%] | Expression Rate (ER) % [2] [%] | Expression Rate (ER) % [3] [%] | Expression Rate (ER) % (TSA expression rate in HEAD and NECK) [%] | Expression Rate (ER) % (TSA expression rate in Kidney) [%] | Expression Rate (ER) % (TSA expression rate in LEUKEMIAS) [%] | Expression Rate (ER) % (TSA expression rate in LUNG cancer) [%] | Expression Rate (ER) % (TSA expression rate in LYMPHOMAS) [%] | Expression Rate (ER) % (TSA expression rate in MELANOMA) [%] | Expression Rate (ER) % (TSA expression rate in PEDIATRIC) [%] | TSA Expression Rate (ER) (LUNG) [%] | Expression Rate (ER) % (TSA expression rate in CRC) [%] | Expression Rate (ER) % (TSA expression rate in Cervical cancer) [%] | Expression Rate (ER) % (TSA expression rate in PROSTATE cancer) [%]
1 | B1 | 13 | 16 | 20 | 20 | 0 | 22 | 27 | 12 | 6 | 15 | 0 | 70 | 19 | 13 | 45 | 39 |  |  |  | 
2 | B2 | 16 | 76 | 41 | 92 | 85 | 83 | 54 | 81 | 90 |  | 55 |  |  |  |  |  | 78 | 88 | 36 | 98
